Reference: PMC10919079, “Biosynthesis of UDP-α-N-Acetyl-D-mannosaminuronic Acid and CMP-β-N-Acetyl-D-neuraminic Acid for the Capsular Polysaccharides of Campylobacter jejuni” (Biochemistry, 2024)

Key:
[1] = system: CC(=O)N[C@H]1[C@@H](OP(=O)(O)OP(=O)(O)OC[C@H]2O[C@@H](n3ccc(=O)[nH]c3=O)[C@H](O)[C@@H]2O)O[C@H](CO)[C@@H](O)[C@@H]1O; experiment: purified protein; conditions: pH 7.5, 25 °C
[2] = biological target: T1, CMP-Neu5Ac synthase (HS6.5) (Campylobacter jejuni, UniProt P0DY07); experiment: anion exchange chromatography, NMR and MS of CMP-Neu5Ac product; assay type: biochemical; conditions: pH 7.5; Neu5Ac co-substrate, MgCl2, pyrophosphatase
T1 construct: full-length synthetic codon-optimised gene, N-terminal His6 tag kept, pET-28a(+), E. coli BL21(DE3)

[3] = system: CC(=O)N[C@@H]1[C@@H](OP(=O)(O)OP(=O)(O)OC[C@H]2O[C@@H](n3ccc(=O)[nH]c3=O)[C@H](O)[C@@H]2O)O[C@H](CO)[C@@H](O)[C@@H]1O; experiment: purified protein; conditions: pH 7.5, 25 °C, same buffer, 2.0 mM NAD+, 2.0 mM DTT, UDP-ManNAc generated in situ from UDP-GlcNAc with excess C2-epimerase (10 μM)
[4] = 50 mM HEPES, 250 mM KCl, 5% glycerol, excess C6-dehydrogenase (10 μM), 2.0 mM NAD+, 2.0 mM DTT
[5] = same buffer, 10 mM MgCl2, 2.0 mM PEP, 300 μM NADH

T1 sequence (P0DY07 whole entry): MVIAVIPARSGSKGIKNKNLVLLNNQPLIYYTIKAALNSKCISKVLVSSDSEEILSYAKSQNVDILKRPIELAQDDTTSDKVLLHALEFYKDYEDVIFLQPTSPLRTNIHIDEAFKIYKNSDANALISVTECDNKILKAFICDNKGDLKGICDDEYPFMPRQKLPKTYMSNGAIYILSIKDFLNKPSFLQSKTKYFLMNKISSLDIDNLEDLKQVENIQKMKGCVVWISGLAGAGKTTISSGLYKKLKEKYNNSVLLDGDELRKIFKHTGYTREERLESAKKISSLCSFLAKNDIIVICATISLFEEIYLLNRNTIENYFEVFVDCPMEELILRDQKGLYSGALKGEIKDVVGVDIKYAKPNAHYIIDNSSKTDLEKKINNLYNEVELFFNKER

nonhydrolyzing UDP-GlcNAc C2-epimerase (HS11.17) (Campylobacter jejuni)
Km [1, 4]: 1370 ± 50 µM | kcat [1, 4]: 5.7 ± 0.2 s⁻¹ | kcat/Km [1, 4]: 4200 ± 200 M⁻¹ s⁻¹

hydrolyzing UDP-GlcNAc C2-epimerase (HS6.10) (Campylobacter jejuni subsp. jejuni 81116)
Km [1, 5]: 160 ± 10 µM | kcat [1, 5]: 3.1 ± 0.1 s⁻¹ | kcat/Km [1, 5]: 19900 ± 1000 M⁻¹ s⁻¹

Nc1ccn([C@@H]2O[C@H](COP(=O)(O)OP(=O)(O)OP(=O)(O)O)[C@@H](O)[C@H]2O)c(=O)n1 [CTP]
anion exchange chromatography, NMR and MS of CMP-Neu5Ac product [2]: CMP-Neu5Ac synthase using CTP as the nucleotide donor

UDP-ManNAc C6-dehydrogenase (HS11.16) (Campylobacter jejuni)
Km [3]: 22 ± 1 µM | kcat [3]: 0.2 ± 0.01 s⁻¹ | kcat/Km [3]: 8700 ± 400 M⁻¹ s⁻¹
